The values that follow come from ChEMBL document CHEMBL3414448, “Advances in the discovery of novel antimicrobials targeting the assembly of bacterial cell division protein FtsZ” (Eur J Med Chem, 2015).

Compound in this data set: N=C(N)c1ccc(-c2cc3ccc(C(=N)N)cc3[nH]2)cc1
As to the kind of experiment: Inhibition of Escherichia coli FtsZ assessed as reduction in substrate KM value.

B1: Cell division protein FtsZ (Escherichia coli K-12), P0A9A6 (protein)
chain: MFEPMELTNDAVIKVIGVGGGGGNAVEHMVRERIEGVEFFAVNTDAQALRKTAVGQTIQIGSGITKGLGAGANPEVGRNAADEDRDALRAALEGADMVFIAAGMGGGTGTGAAPVVAEVAKDLGILTVAVVTKPFNFEGKKRMAFAEQGITELSKHVDSLITIPNDKLLKVLGRGISLLDAFGAANDVLKGAVQGIAELITRPGLMNVDFADVRTVMSEMGYAMMGSGVASGEDRAEEAAEMAISSPLLEDIDLSGARGVLVNITAGFDLRLDEFETVGNTIRAFASDNATVVIGTSLDPDMNDELRVTVVATGIGMDKRPEITLVTNKQVQQPVMDRYQQHGMAPLTQEQKPVAKVVNDNAPQTAKEPDYLDIPAFLRKQAD
For B1, the Km amounted to 29.4 µM.

What is called Km is the concentration of substrate that gives half-maximal velocity.
